Tests used:
[1] = target: SARS-CoV-2 Beta receptor binding domain (SARS-CoV-2, Beta variant (B.1.351), K417N | E484K | N501Y, biotin (EZ-Link Sulfo-NHS-LC-Biotin, average of four biotins per RBD molecule)); assay: BLI; conditions: both partners purified
[2] = target: SARS-CoV-2 Delta receptor binding domain (SARS-CoV-2, Delta variant (B.1.617.2), L452R | T478K, biotin (EZ-Link Sulfo-NHS-LC-Biotin, average of four biotins per RBD molecule)); assay: BLI; conditions: both partners purified

B1: ADI-81654 (Fab, V domains shown)
VH: QVQLKQSGPTLVKPTQTLTLTCTFSGFSLSTYGVGVGWIRQPPGKALEWLALIYYDDDKRYSPSLKSRLTITKDTSQNQVVLTMTNMDPVDTATYYCARHTIATIFDFDSWGQGTLVTVSS
VL: QSVLTQPASVSGSPGQSITISCTGTSSDVGGHNYVSWYQQHPGKAPKLMIYEVSNRPSGVSNRFSGSKSGNTASLTISGLQAEDEADYSCSSYASSTSPVVFGGVTKLTVL
Kd [1]: 2.56 nM | Kd [2]: 1.83 nM

From PMC10180619 (Nature Communications, 2023)
